Measurements as given in PMC6874894.

System: CTCF
Experiment: EMSA

Substance	binding signal (% increase in binding vs G allele (N1))	binding signal (% increase in binding vs G allele (N3))
50 bp probe rs150502618-A	15	–
230 bp probe rs150502618-A	–	8
